Values belong to the binder of their own block, whether it stands above or below them.
Key:
[1] = biological target: T1, Swi5-Sfr1 complex (UniProt Q9UUB7 1-85; Q9USV1 1-299); assay: co-IP; purified Rad51 (2.5 uM) and Swi5-Sfr1 (2.5 uM) mixed in 30 mM Tris-HCl pH 7.5, 20 mM KCl, 3 mM MgCl2, 1 mM DTT, 5% glycerol, 0.05% NP-40, 30 min at 4 °C; precipitated with rabbit anti-Rad51 antibody and protein G magnetic beads; western blots for Rad51, Sfr1 and Swi5; conditions: both partners purified
T1 construct: Swi5, subunit of the Swi5-Sfr1 complex; Sfr1, subunit of the Swi5-Sfr1 complex; Over-expressed and purified as a preformed complex; detected in the co-IP by blots for Sfr1 and Swi5; No tag is mentioned; also called Swi5-Sfr1 auxiliary factor; source: E. coli BL21-Codonplus(DE3) RIPL, purified as a complex (ammonium sulfate, Q Sepharose, HiTrap Heparin, Superdex 200)
T1 sequence (looked up) 1: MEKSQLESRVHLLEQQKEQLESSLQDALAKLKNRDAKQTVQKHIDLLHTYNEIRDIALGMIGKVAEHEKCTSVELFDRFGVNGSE
T1 sequence (looked up) 2: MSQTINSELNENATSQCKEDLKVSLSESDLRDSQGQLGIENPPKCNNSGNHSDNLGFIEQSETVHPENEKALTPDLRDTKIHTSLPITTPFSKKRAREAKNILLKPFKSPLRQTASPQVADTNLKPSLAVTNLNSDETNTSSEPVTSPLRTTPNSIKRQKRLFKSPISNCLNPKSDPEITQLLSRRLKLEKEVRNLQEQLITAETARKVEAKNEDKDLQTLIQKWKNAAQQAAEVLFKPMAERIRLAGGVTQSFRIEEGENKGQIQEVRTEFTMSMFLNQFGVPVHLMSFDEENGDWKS

[2] = biological target: T2, Rad51-S2 (Schizosaccharomyces pombe, UniProt P36601 1-365, R324A;K334A); assay: fluorescence anisotropy; 1 mM ATP, 3 mM MgCl2; Hill n 2.25; 30 mM HEPES-KOH pH 7.5, 100 mM KCl, 3 mM MgCl2, 1 mM DTT, 5% glycerol, 1 mM ATP, 25 C (EMSA: 2 mM ATP, 37 C, then 0.2% glutaraldehyde); conditions: protein: recombinant; label: 5' TAMRA
T2 sequence: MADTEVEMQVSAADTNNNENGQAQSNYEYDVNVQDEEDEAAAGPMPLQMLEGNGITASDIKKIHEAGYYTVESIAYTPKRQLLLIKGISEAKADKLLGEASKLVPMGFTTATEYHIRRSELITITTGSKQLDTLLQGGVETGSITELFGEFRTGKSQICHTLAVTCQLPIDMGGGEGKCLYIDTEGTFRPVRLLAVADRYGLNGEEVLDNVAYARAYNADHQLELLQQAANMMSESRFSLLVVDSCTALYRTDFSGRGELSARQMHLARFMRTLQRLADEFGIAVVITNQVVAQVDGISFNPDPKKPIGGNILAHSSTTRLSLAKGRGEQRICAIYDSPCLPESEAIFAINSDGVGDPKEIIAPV

[3] = biological target: T3, Rad51-L2 (Schizosaccharomyces pombe, UniProt P36601 1-365, V295A); assay: fluorescence anisotropy; 1 mM ATP, 3 mM MgCl2; Hill n 2.59; 30 mM HEPES-KOH pH 7.5, 100 mM KCl, 3 mM MgCl2, 1 mM DTT, 5% glycerol, 1 mM ATP, 25 C (EMSA: 2 mM ATP, 37 C, then 0.2% glutaraldehyde); conditions: protein: recombinant; label: 5' TAMRA
T3 sequence: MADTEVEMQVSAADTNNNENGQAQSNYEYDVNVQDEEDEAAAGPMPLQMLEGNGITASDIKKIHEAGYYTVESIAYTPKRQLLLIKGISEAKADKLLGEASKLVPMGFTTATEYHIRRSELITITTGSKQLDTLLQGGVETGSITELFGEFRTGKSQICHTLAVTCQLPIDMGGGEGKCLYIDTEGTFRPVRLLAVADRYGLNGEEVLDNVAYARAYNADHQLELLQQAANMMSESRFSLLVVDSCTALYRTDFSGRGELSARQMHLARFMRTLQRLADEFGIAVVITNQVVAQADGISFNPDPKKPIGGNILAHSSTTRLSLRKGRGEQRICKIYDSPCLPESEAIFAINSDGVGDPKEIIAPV

[4] = biological target: T4, Rad51 wild-type (Schizosaccharomyces pombe, UniProt P36601 1-365); assay: fluorescence anisotropy; 1 mM ATP, 3 mM MgCl2; Hill n 2.86; 30 mM HEPES-KOH pH 7.5, 100 mM KCl, 3 mM MgCl2, 1 mM DTT, 5% glycerol, 1 mM ATP, 25 C (EMSA: 2 mM ATP, 37 C, then 0.2% glutaraldehyde); conditions: protein: recombinant; label: 5' TAMRA
T4 sequence: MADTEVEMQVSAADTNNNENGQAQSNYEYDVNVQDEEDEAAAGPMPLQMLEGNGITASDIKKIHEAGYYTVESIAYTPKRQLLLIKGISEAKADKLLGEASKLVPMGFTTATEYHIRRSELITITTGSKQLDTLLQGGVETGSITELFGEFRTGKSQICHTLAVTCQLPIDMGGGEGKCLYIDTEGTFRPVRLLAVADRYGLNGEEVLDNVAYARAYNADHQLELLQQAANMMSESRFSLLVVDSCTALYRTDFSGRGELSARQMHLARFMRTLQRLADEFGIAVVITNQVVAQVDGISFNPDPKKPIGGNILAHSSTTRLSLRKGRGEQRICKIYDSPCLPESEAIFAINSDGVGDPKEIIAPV

[5] = biological target: T5, Rad51-L1 (Schizosaccharomyces pombe, UniProt P36601 1-365, R257A); assay: fluorescence anisotropy; 1 mM ATP, 3 mM MgCl2; Hill n 2.94; 30 mM HEPES-KOH pH 7.5, 100 mM KCl, 3 mM MgCl2, 1 mM DTT, 5% glycerol, 1 mM ATP, 25 C (EMSA: 2 mM ATP, 37 C, then 0.2% glutaraldehyde); conditions: protein: recombinant; label: 5' TAMRA
T5 sequence: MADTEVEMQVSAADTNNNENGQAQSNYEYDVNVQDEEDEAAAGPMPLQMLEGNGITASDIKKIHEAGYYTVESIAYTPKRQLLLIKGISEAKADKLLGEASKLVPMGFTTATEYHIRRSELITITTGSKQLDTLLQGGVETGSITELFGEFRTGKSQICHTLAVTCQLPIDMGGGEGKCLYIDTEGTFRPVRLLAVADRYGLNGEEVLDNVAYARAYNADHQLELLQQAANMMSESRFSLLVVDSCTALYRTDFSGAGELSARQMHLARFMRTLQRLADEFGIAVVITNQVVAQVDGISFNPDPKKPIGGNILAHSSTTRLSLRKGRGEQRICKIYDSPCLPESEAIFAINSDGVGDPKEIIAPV

[6] = biological target: T3, Rad51-L2; assay: FRET; 1 mM ATP; 1.40x B-form; 30 mM HEPES-KOH pH 7.5, 100 mM KCl, 3 mM MgCl2, 1 mM DTT, 5% glycerol, 1 mM ATP, 25 C (EMSA: 2 mM ATP, 37 C, then 0.2% glutaraldehyde); conditions: protein: recombinant; label: internal fluorescein and ROX
[7] = biological target: T5, Rad51-L1; assay: FRET; 1 mM ATP; elongation comparable to WT; 30 mM HEPES-KOH pH 7.5, 100 mM KCl, 3 mM MgCl2, 1 mM DTT, 5% glycerol, 1 mM ATP, 25 C (EMSA: 2 mM ATP, 37 C, then 0.2% glutaraldehyde); conditions: protein: recombinant; label: internal fluorescein and ROX
[8] = biological target: T2, Rad51-S2; assay: as above; conditions: protein: recombinant; label: internal fluorescein and ROX
[9] = biological target: T4, Rad51 wild-type; assay: FRET; 1 mM ATP; ssDNA elongated to 1.45x B-form; 30 mM HEPES-KOH pH 7.5, 100 mM KCl, 3 mM MgCl2, 1 mM DTT, 5% glycerol, 1 mM ATP, 25 C (EMSA: 2 mM ATP, 37 C, then 0.2% glutaraldehyde); conditions: protein: recombinant; label: internal fluorescein and ROX
[10] = biological target: T4, Rad51 wild-type; assay: FRET; 1 mM ATP; dsDNA elongated to 1.37x B-form; 30 mM HEPES-KOH pH 7.5, 100 mM KCl, 3 mM MgCl2, 1 mM DTT, 5% glycerol, 1 mM ATP, 25 C (EMSA: 2 mM ATP, 37 C, then 0.2% glutaraldehyde); conditions: protein: recombinant; label: internal fluorescein and ROX on strand 1; blunt
[11] = biological target: T3, Rad51-L2; assay: FRET; 1 mM ATP; reduced elongation, 1.28x B-form; 30 mM HEPES-KOH pH 7.5, 100 mM KCl, 3 mM MgCl2, 1 mM DTT, 5% glycerol, 1 mM ATP, 25 C (EMSA: 2 mM ATP, 37 C, then 0.2% glutaraldehyde); conditions: protein: recombinant; label: internal fluorescein and ROX on strand 1; blunt

B1: wild-type Rad51 from the fission yeast Schizosaccharomyces pombe (natural protein, UniProt P36601 1-365, looked up)
chain: MADTEVEMQVSAADTNNNENGQAQSNYEYDVNVQDEEDEAAAGPMPLQMLEGNGITASDIKKIHEAGYYTVESIAYTPKRQLLLIKGISEAKADKLLGEASKLVPMGFTTATEYHIRRSELITITTGSKQLDTLLQGGVETGSITELFGEFRTGKSQICHTLAVTCQLPIDMGGGEGKCLYIDTEGTFRPVRLLAVADRYGLNGEEVLDNVAYARAYNADHQLELLQQAANMMSESRFSLLVVDSCTALYRTDFSGRGELSARQMHLARFMRTLQRLADEFGIAVVITNQVVAQVDGISFNPDPKKPIGGNILAHSSTTRLSLRKGRGEQRICKIYDSPCLPESEAIFAINSDGVGDPKEIIAPV
notes: Rad51 recombinase, Schizosaccharomyces pombe; No tag is mentioned; purification is by conventional chromatography; also called SpRad51; WT
binding result [1]: binds

B2: Rad51-L2 mutant (V295A in loop 2) (natural protein, Schizosaccharomyces pombe, UniProt P36601 1-365, looked up)
chain: MADTEVEMQVSAADTNNNENGQAQSNYEYDVNVQDEEDEAAAGPMPLQMLEGNGITASDIKKIHEAGYYTVESIAYTPKRQLLLIKGISEAKADKLLGEASKLVPMGFTTATEYHIRRSELITITTGSKQLDTLLQGGVETGSITELFGEFRTGKSQICHTLAVTCQLPIDMGGGEGKCLYIDTEGTFRPVRLLAVADRYGLNGEEVLDNVAYARAYNADHQLELLQQAANMMSESRFSLLVVDSCTALYRTDFSGRGELSARQMHLARFMRTLQRLADEFGIAVVITNQVVAQADGISFNPDPKKPIGGNILAHSSTTRLSLRKGRGEQRICKIYDSPCLPESEAIFAINSDGVGDPKEIIAPV
notes: Rad51 recombinase, Schizosaccharomyces pombe, with V295A in L2; source: E. coli BL21-Codonplus(DE3) RIPL, purified (same procedure as wild-type Rad51)
binding result [1]: binds

B5: [TAMRA]dT72 (ssDNA)
DNA: TTTTTTTTTTTTTTTTTTTTTTTTTTTTTTTTTTTTTTTTTTTTTTTTTTTTTTTTTTTTTTTTTTTTTTTT
Kd [2]: 895 ± 55 nM | Kd [3]: 308 ± 19 nM | Kd [4]: 358 ± 25 nM | Kd [5]: 664 ± 18 nM

B6: 16(A)(-)_F+R_73 ssDNA (ssDNA)
DNA: AAATGAACATAAAGTAAATAAGTATAAGGATAATACAAAATTAAGTAAATGAATAAACATAGAAAATAAAGTA
modifications: fluorescein-dT at 31; ROX-dT at 42
binding result [6]: binds | binding result [7]: binds | binding result [8]: binds | binding result [9]: binds

B7: 16(A)(-)_F+R_73 bp duplex (dsDNA)
DNA 1: AAATGAACATAAAGTAAATAAGTATAAGGATAATACAAAATTAAGTAAATGAATAAACATAGAAAATAAAGTA
DNA 2: TACTTTATTTTCTATGTTTATTCATTTACTTAATTTTGTATTATCCTTATACTTATTTACTTTATGTTCATTT
modifications: fluorescein-dT at 31 and ROX-dT at 42 of strand 1
binding result [10]: binds | binding result [11]: binds

Further lines, results first:

binding result [1]: binds
B3: Rad51-S2 mutant (R324A and K334A in site II) (natural protein, Schizosaccharomyces pombe, UniProt P36601 1-365, looked up)
chain: MADTEVEMQVSAADTNNNENGQAQSNYEYDVNVQDEEDEAAAGPMPLQMLEGNGITASDIKKIHEAGYYTVESIAYTPKRQLLLIKGISEAKADKLLGEASKLVPMGFTTATEYHIRRSELITITTGSKQLDTLLQGGVETGSITELFGEFRTGKSQICHTLAVTCQLPIDMGGGEGKCLYIDTEGTFRPVRLLAVADRYGLNGEEVLDNVAYARAYNADHQLELLQQAANMMSESRFSLLVVDSCTALYRTDFSGRGELSARQMHLARFMRTLQRLADEFGIAVVITNQVVAQVDGISFNPDPKKPIGGNILAHSSTTRLSLAKGRGEQRICAIYDSPCLPESEAIFAINSDGVGDPKEIIAPV
notes: Rad51 recombinase, Schizosaccharomyces pombe, with R324A and K334A in site II; source: E. coli BL21-Codonplus(DE3) RIPL, purified (same procedure as wild-type Rad51)

binding result [1]: binds
B4: Rad51-L1 mutant (R257A in loop 1) (natural protein, Schizosaccharomyces pombe, UniProt P36601 1-365, looked up)
chain: MADTEVEMQVSAADTNNNENGQAQSNYEYDVNVQDEEDEAAAGPMPLQMLEGNGITASDIKKIHEAGYYTVESIAYTPKRQLLLIKGISEAKADKLLGEASKLVPMGFTTATEYHIRRSELITITTGSKQLDTLLQGGVETGSITELFGEFRTGKSQICHTLAVTCQLPIDMGGGEGKCLYIDTEGTFRPVRLLAVADRYGLNGEEVLDNVAYARAYNADHQLELLQQAANMMSESRFSLLVVDSCTALYRTDFSGAGELSARQMHLARFMRTLQRLADEFGIAVVITNQVVAQVDGISFNPDPKKPIGGNILAHSSTTRLSLRKGRGEQRICKIYDSPCLPESEAIFAINSDGVGDPKEIIAPV
notes: Rad51 recombinase, Schizosaccharomyces pombe, with R257A in L1; source: E. coli BL21-Codonplus(DE3) RIPL, purified (as wild-type Rad51, with a HiTrap Blue column instead of HiTrap Heparin)

Reference: article PMC7289862, “Real-time tracking reveals catalytic roles for the two DNA binding sites of Rad51” (Nature Communications, 2019)
